Three molecules from article PMC12521702 (2025) can be followed below.

For assay [1], the target named is SARS-CoV-2 prototype (PT) RBD (SARS-CoV-2, UniProt P0DTC2). The experiment in a line: SPR. A general note: SPR reads the build-up and loss of mass on a sensor chip optically.
Assay [2] addresses TNF (human, UniProt P01375). The experiment in a line: SPR.

TNF, sequence (P01375 77-233): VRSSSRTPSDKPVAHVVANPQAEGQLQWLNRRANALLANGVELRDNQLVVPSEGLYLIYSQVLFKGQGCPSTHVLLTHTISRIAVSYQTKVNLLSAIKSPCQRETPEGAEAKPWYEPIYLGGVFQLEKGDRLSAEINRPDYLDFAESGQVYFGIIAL

B1: ACE2 (M)-Fc-TNFR2 (Fc fusion)
chain: QSTIEEQAKFFLDYFNHEAEDLFYQSSLASWNYNTNITEENVQNMNNAGDKWSAFLKEQSTWAQMYPLQEIQNLTVKLQLQALQQNGSSVLSEDKSKRLNTILNTMSTIYSTGKVCNPDNPQECLLLEPGLNEIMANSLDYNERLWAWESWRSEVGKQLRPLYEEYVVLKNEMARANHYEDYGDYWRGDYEVNGVDGYDYSRGQLIEDVEHTFEEIKPLYEHLHAYVRAKLMNAYPSYISPIGCLPAHLLGDMWGQFWTNLYSLTVPFGQKPNIDVTDAMVDQAWDAQRIFKEAEKFFVSVGLPNMTQGFWEYSMLTDPGNVQKAVCHPTAWDLGKGDFRILMCTKVTMDDFLTAHHEMGHIQYDMAYAAQPFLLRNGANEGFHEAVGEIMSLSAATPKHLKSIGLLSPDFQEDNETEINFLLKQALTIVGTLPFTYMLEKWRWMVFKGEIPKDQWMKKWWEMKREIVGVVEPVPHDETYCDPASLFHVSNDYSFIRYYTRTLYQFQFQEALCQAAKHEGPLHKCDISNSTEAGQKLFNMLRLGKSEPWTLALENVVGAKNMNVRPLLNYFEPLFTWLKDQNKNSFVGWSTDWSPYADQSIKVRISLKSALGDKAYEWNDNEMYLFRSSVAYAMRQYFLKVKNQMILFGEEDVRVANLKPRISFNFFVTAPKNVSDIIPRTEVEKAIRMSRSRINDAFRLNDNSLEFLGIQPTLGPPNQPPVSGGGGSGGGGSGGGGSLPAQVAFTPYAPEPGSTCRLREYYDQTAQMCCSKCSPGQHAKVFCTKTSDTVCDSCEDSTYTQLWNWVPECLSCGSRCSSDQVETQACTREQNRICTCRPGWYCALSKQEGCRLCAPLRKCRPGFGVARPGTETSDVVCKPCAPGTFSNTTSSTDICRPHQICNVVAIPGNASMDAVCTSTSPTRSMAPGAVHLPQPVSTRSQHTQPTPEPSTAPSTSFLLPMGPSPPAEGSTGD
Regarding B1, binding in assay [1] was characterised by a dissociation constant (Kd) of 0.258 nM.

B2: TNFR2-Fc (Fc fusion)
chain: LPAQVAFTPYAPEPGSTCRLREYYDQTAQMCCSKCSPGQHAKVFCTKTSDTVCDSCEDSTYTQLWNWVPECLSCGSRCSSDQVETQACTREQNRICTCRPGWYCALSKQEGCRLCAPLRKCRPGFGVARPGTETSDVVCKPCAPGTFSNTTSSTDICRPHQICNVVAIPGNASMDAVCTSTSPTRSMAPGAVHLPQPVSTRSQHTQPTPEPSTAPSTSFLLPMGPSPPAEGSTGDFALPVGLIVGVTALGLLIIGVVNCVIMTQVKKKPLCLQREAKVPHLPADKARGTQGPEQQHLLITAPSSSSSSLESSASALDRRAPTRNQPQAPGVEASGAGEARASTGSSDSSPGGHGTQVNVTCIVNVCSSSDHSSQCSSQASSTMGDTDSSPSESPKDEQVPFSKEECAFRSQLETPETLLGSTEEKPLPLGVPDAGMKPS
Take B2: the Kd (as a rule, the equilibrium constant for the complex coming apart) in assay [2] amounted to 0.0418 nM.

B3: ACE2 (M)-Fc (Fc fusion)
chain: QSTIEEQAKFFLDYFNHEAEDLFYQSSLASWNYNTNITEENVQNMNNAGDKWSAFLKEQSTWAQMYPLQEIQNLTVKLQLQALQQNGSSVLSEDKSKRLNTILNTMSTIYSTGKVCNPDNPQECLLLEPGLNEIMANSLDYNERLWAWESWRSEVGKQLRPLYEEYVVLKNEMARANHYEDYGDYWRGDYEVNGVDGYDYSRGQLIEDVEHTFEEIKPLYEHLHAYVRAKLMNAYPSYISPIGCLPAHLLGDMWGQFWTNLYSLTVPFGQKPNIDVTDAMVDQAWDAQRIFKEAEKFFVSVGLPNMTQGFWEYSMLTDPGNVQKAVCHPTAWDLGKGDFRILMCTKVTMDDFLTAHHEMGHIQYDMAYAAQPFLLRNGANEGFHEAVGEIMSLSAATPKHLKSIGLLSPDFQEDNETEINFLLKQALTIVGTLPFTYMLEKWRWMVFKGEIPKDQWMKKWWEMKREIVGVVEPVPHDETYCDPASLFHVSNDYSFIRYYTRTLYQFQFQEALCQAAKHEGPLHKCDISNSTEAGQKLFNMLRLGKSEPWTLALENVVGAKNMNVRPLLNYFEPLFTWLKDQNKNSFVGWSTDWSPYADQSIKVRISLKSALGDKAYEWNDNEMYLFRSSVAYAMRQYFLKVKNQMILFGEEDVRVANLKPRISFNFFVTAPKNVSDIIPRTEVEKAIRMSRSRINDAFRLNDNSLEFLGIQPTLGPPNQPPVS
Consider B3, for which the dissociation constant Kd in assay [1] was determined as 0.274 nM.
